Results reported in the supplement of paper PMC11780869.

System: Bacillus subtilis
Assay: cleaved RNA product abundance (RNA/gDNA barcode ratio) relative to median wild-type variant (ratio to wild type); higher = more accumulation of the downstream cleavage product
Conditions: cleavage site: cggR-gapA (positions -7 to +36 mutated)
Procedure, shortened: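 Cleaved product abundance for each construct is its RNA-to-gDNA barcode ratio, scaled to the median construct carrying the unmutated site. Cleaved RNA was isolated on a gel, reverse transcribed and barcode-sequenced, with genomic DNA barcodes sequenced alongside and UMIs collapsed. The reporters were truncated aprE or tetM mRNAs with barcoded, mutagenized RNase Y cleavage-site windows integrated into the B. subtilis chromosome, and cultures grew in LB at 37°C from OD600 0.0003 to 0.3.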

[1] = experiment (reporter, strain, medium): exp 4a: truncated aprE reporter, strain BJT201 with 2% xylose (RNase J1 expressed)
[2] = experiment (reporter, strain, medium): exp 2b: truncated aprE reporter, strain BJT200
[3] = experiment (reporter, strain, medium): exp 6: tetM reporter, strain 168

| Sequence | cleaved RNA product abundance [1] | cleaved RNA product abundance [2] | cleaved RNA product abundance [3] |
| --- | --- | --- | --- |
| ACAGACGAAGGAGCCGCAAAGAAGTTATTAAGGGATGAAGAATCCCTCAATATCAATATCTCTCACTTATTTAAA | 0.0586 |  |  |
| ACAGACGAAGGAGCCGCAAAGAAGTTATTAAGGGATGAAGAATCCCTCCATATAAATATCTCTCACTTATTTAAA | 0.273 |  |  |
| ACAGACGAAGGAGCCGCAAAGAAGTTATTAAGGGATGAAGAATCCTTCAATATAAATATCTCTCACTTATTTAAA | 0.405 | 0.265 |  |
| ACAGACGAAGGAGCCGCAAAGAAGTTATTAAGGGATGAAGAATTCCTCAATATAAATATCTCTCACTTATTTAAA | 0.29 |  |  |
| ACAGACGAAGGAGCCGCAAAGAAGTTATTAAGGGATGAAGATTCCCTCAATATAAATATCTCTCACTTATTTAAA | 0.68 |  |  |
| ACAGACGAAGGAGCCGCAAAGAAGTTATTAAGGGATGAAGCATCCCTCAATATAAATATCTCTCACTTATTTAAA | 0.748 |  |  |
| ACAGACGAAGGAGCCGCAAAGAAGTTATTAAGGGATGAATAAAACCTCAATATAAATATCTCTCACTTATTTAAA | 0.125 | 0.119 |  |
| ACAGACGAAGGAGCCGCAAAGAAGTTATTAAGGGATGAATAAACACTCAATATAAATATCTCTCACTTATTTAAA | 0.172 | 0.0698 |  |
| ACAGACGAAGGAGCCGCAAAGAAGTTATTAAGGGATGAATAAACCATCAATATAAATATCTCTCACTTATTTAAA | 0.101 | 0.125 |  |
| ACAGACGAAGGAGCCGCAAAGAAGTTATTAAGGGATGAATAAACCCACAATATAAATATCTCTCACTTATTTAAA | 0.0828 | 0.143 |  |
| ACAGACGAAGGAGCCGCAAAGAAGTTATTAAGGGATGAATAAACCCGCAATATAAATATCTCTCACTTATTTAAA | 0.103 |  |  |
| ACAGACGAAGGAGCCGCAAAGAAGTTATTAAGGGATGAATAAACCCTAAATATAAATATCTCTCACTTATTTAAA | 0.4 |  |  |
| ACAGACGAAGGAGCCGCAAAGAAGTTATTAAGGGATGAATAAACCCTCAAAATAAATATCTCTCACTTATTTAAA | 0.198 | 0.196 |  |
| ACAGACGAAGGAGCCGCAAAGAAGTTATTAAGGGATGAATAAACCCTCAACATAAATATCTCTCACTTATTTAAA | 0.0675 | 0.122 |  |
| ACAGACGAAGGAGCCGCAAAGAAGTTATTAAGGGATGAATAAACCCTCAATATAAAAATCTCTCACTTATTTAAA | 0.519 |  |  |
| ACAGACGAAGGAGCCGCAAAGAAGTTATTAAGGGATGAATAAACCCTCAATATAAATAACTCTCACTTATTTAAA | 0.464 |  |  |
| ACAGACGAAGGAGCCGCAAAGAAGTTATTAAGGGATGAATAAACCCTCAATATAAATATCTCTCACTTATTTAAA | 0.52 | 0.443 | 0.578 |
| ACAGACGAAGGAGCCGCAAAGAAGTTATTAAGGGATGAATAAACCCTCAATATAAATGTCTCTCACTTATTTAAA | 0.39 | 0.292 |  |
| ACAGACGAAGGAGCCGCAAAGAAGTTATTAAGGGATGAATAAACCCTCAATATAATTATCTCTCACTTATTTAAA | 0.33 | 0.293 |  |
| ACAGACGAAGGAGCCGCAAAGAAGTTATTAAGGGATGAATAAACCCTCAATATAGATATCTCTCACTTATTTAAA | 0.342 | 0.365 |  |
| ACAGACGAAGGAGCCGCAAAGAAGTTATTAAGGGATGAATAAACCCTCAATATATATATCTCTCACTTATTTAAA | 0.477 | 0.488 |  |
| ACAGACGAAGGAGCCGCAAAGAAGTTATTAAGGGATGAATAAACCCTCAATGTAAATATCTCTCACTTATTTAAA | 0.19 |  |  |
| ACAGACGAAGGAGCCGCAAAGAAGTTATTAAGGGATGAATAAACCCTCACTATAAATATCTCTCACTTATTTAAA | 0.173 |  |  |

| Sequence | cleaved RNA product abundance [1] | cleaved RNA product abundance [2] | cleaved RNA product abundance [3] |
| --- | --- | --- | --- |
| ACAGACGAAGGAGCCGCAAAGAAGTTATTAAGGGATGAATAAACCCTCAGTATAAATATCTCTCACTTATTTAAA | 0.211 |  |  |
| ACAGACGAAGGAGCCGCAAAGAAGTTATTAAGGGATGAATAAACCCTCATTATAAATATCTCTCACTTATTTAAA | 0.19 | 0.13 |  |
| ACAGACGAAGGAGCCGCAAAGAAGTTATTAAGGGATGAATAAACCCTCCATATAAATATCTCTCACTTATTTAAA | 0.162 |  |  |
| ACAGACGAAGGAGCCGCAAAGAAGTTATTAAGGGATGAATAAACCCTCTATATAAATATCTCTCACTTATTTAAA |  | 0.151 |  |
| ACAGACGAAGGAGCCGCAAAGAAGTTATTAAGGGATGAATAAACCCTGAATATAAATATCTCTCACTTATTTAAA | 0.388 | 0.303 |  |
| ACAGACGAAGGAGCCGCAAAGAAGTTATTAAGGGATGAATAAACCCTTAATATAAATATCTCTCACTTATTTAAA | 0.507 |  |  |
| ACAGACGAAGGAGCCGCAAAGAAGTTATTAAGGGATGAATAAACCTTCAATATAAATATCTCTCACTTATTTAAA | 0.267 | 0.096 |  |
| ACAGACGAAGGAGCCGCAAAGAAGTTATTAAGGGATGAATAAACTCTCAATATAAATATCTCTCACTTATTTAAA | 0.14 |  |  |
| ACAGACGAAGGAGCCGCAAAGAAGTTATTAAGGGATGAATAAATCCCTCAATATAAATATCTCTCACTTATTTAA | 0.537 |  |  |
| ACAGACGAAGGAGCCGCAAAGAAGTTATTAAGGGATGAATAAATCCTCAATATAAATATCTCTCACTTATTTAAA | 0.306 |  |  |
| ACAGACGAAGGAGCCGCAAAGAAGTTATTAAGGGATGAATAACACCACAATATAAATATCTCTCACTTATTTAAA | 0.0909 |  |  |
| ACAGACGAAGGAGCCGCAAAGAAGTTATTAAGGGATGAATAACACCTCAATATAAATATCTCTCACTTATTTAAA | 0.164 |  |  |
| ACAGACGAAGGAGCCGCAAAGAAGTTATTAAGGGATGAATAACCACTCAATATAAATATCTCTCACTTATTTAAA | 0.17 | 0.0866 |  |
| ACAGACGAAGGAGCCGCAAAGAAGTTATTAAGGGATGAATAACCCCTAAATATAAATATCTCTCACTTATTTAAA | 0.542 |  |  |
| ACAGACGAAGGAGCCGCAAAGAAGTTATTAAGGGATGAATAACCCCTCAAAATAAATATCTCTCACTTATTTAAA |  | 0.208 |  |
| ACAGACGAAGGAGCCGCAAAGAAGTTATTAAGGGATGAATAACCCCTCAATATAAATATCTCTCACTTATTTAAA | 0.609 | 0.56 | 0.408 |
| ACAGACGAAGGAGCCGCAAAGAAGTTATTAAGGGATGAATAACCCCTCAATATACATATCTCTCACTTATTTAAA | 0.37 |  |  |
| ACAGACGAAGGAGCCGCAAAGAAGTTATTAAGGGATGAATAACCCCTCAATATATATATCTCTCACTTATTTAAA | 0.739 |  |  |
| ACAGACGAAGGAGCCGCAAAGAAGTTATTAAGGGATGAATAACCCCTCAATCTAAATATCTCTCACTTATTTAAA | 0.0932 |  |  |
| ACAGACGAAGGAGCCGCAAAGAAGTTATTAAGGGATGAATAACCCCTCCATATAAATATCTCTCACTTATTTAAA | 0.178 |  |  |
| ACAGACGAAGGAGCCGCAAAGAAGTTATTAAGGGATGAATAACCCCTCTATATAAATATCTCTCACTTATTTAAA | 0.229 |  |  |
| ACAGACGAAGGAGCCGCAAAGAAGTTATTAAGGGATGAATAACCCCTTAATATAAATATCTCTCACTTATTTAAA | 0.505 | 1.34 |  |
